Test results: the PETadex activity labels (doi:10.1016/j.bbalip.2005.11.003)

Key:
Conditions in all cases: pH 7; 25 °C
p-NP-C4 = substrate: p-NP-C4
triacetin = substrate: triacetin
tributyrin = substrate: tributyrin
tripropionin = substrate: tripropionin
vinyl acetate = substrate: vinyl acetate
vinyl butyrate = substrate: vinyl butyrate
vinyl propionate = substrate: vinyl propionate
vinyl laurate = substrate: vinyl laurate

B1: unnamed (protein)
chain: MWLLPLVLTSLASSATWAGQPASPPVVDTAQGRVLGKYVSLEGLAQPVAVFLGVPFAKPPLGSLRFAPPQPAEPWSFVKNTTSYPPMCCQDPVVEQMTSDLFTNGKERLTLEFSEDCLYLNIYTPADLTKRGRLPVMVWIHGGGLVLGGAPMYDGVVLAAHENVVVVAIQYRLGIWGFFSTGDEHSRGNWGHLDQVAALHWVQENIANFGGDPGSVTIFGESAGGESVSVLVLSPLAKNLFHRAISESGVALTVALVRKDMKAAAKQIAVLAGCKTTTSAVFVHCLRQKSEDELLDLTLKMKFLTLDFHGDQRESHPFLPTVVDGVLLPKMPEEILAEKDFNTVPYIVGINKQEFGWLLPTMMGFPLSEGKLDQKTATSLLWKSYPIANIPEELTPVATDKYLGGTDDPVKKKDLFLDLMGDVVFGVPSVTVARQHRDAGAPTYMYEFQYRPSFSSDKKPKTVIGDHGDEIFSVFGFPLLKGDAPEEEVSLSKTVMKFWANFARSGNPNGEGLPHWPMYDQEEGYLQIGVNTQAAKRLKGEEVAFWNDLLSKEAAKKPPKIKHAEL
p-NP-C4
  Km: 80 µM
  kcat: 18 s⁻¹
  kcat/Km: 225000 M⁻¹ s⁻¹
triacetin
  Km: 3000 µM
  kcat: 60 s⁻¹
  kcat/Km: 20000 M⁻¹ s⁻¹
tributyrin
  Km: 50 µM
  kcat: 70 s⁻¹
  kcat/Km: 1.4e+06 M⁻¹ s⁻¹
tripropionin
  Km: 300 µM
  kcat: 50 s⁻¹
  kcat/Km: 167000 M⁻¹ s⁻¹
Vinyl acetate
  Km: 4000 µM
  kcat: 315 s⁻¹
  kcat/Km: 78800 M⁻¹ s⁻¹
Vinyl butyrate
  Km: 2000 µM
  kcat: 460 s⁻¹
  kcat/Km: 230000 M⁻¹ s⁻¹
Vinyl propionate
  Km: 5000 µM
  kcat: 295 s⁻¹
  kcat/Km: 59000 M⁻¹ s⁻¹

B2: unnamed (protein)
chain: MLDMPIDPVYYQLAEYFDSLPKFDQFSSAREYREAINRIYEERNRQLSQHERVERVEDRTIKGRNGDIRVRVYQQKPDSPVLVYYHGGGFVICSIESHDALCRRIARLSNSTVVSVDYRLAPEHKFPAAVYDCYDATKWVAENAEELRIDPSKIFVGGDSAGGNLAAAVSIMARDSGEDFIKHQILIYPVVNFVAPTPSLLEFGEGLWILDQKIMSWFSEQYFSREEDKFNPLASVIFADLENLPPALIITAEYDPLRDEGEVFGQMLRRAGVEASIVRYRGVLHGFINYYPVLKAARDAINQIAALLVFD
p-NP-C4
  Km: 40 µM
  kcat: 140 s⁻¹
  kcat/Km: 3.5e+06 M⁻¹ s⁻¹
triacetin
  Km: 10000 µM
  kcat: 40 s⁻¹
  kcat/Km: 4000 M⁻¹ s⁻¹
tributyrin
  Km: 50 µM
  kcat: 95 s⁻¹
  kcat/Km: 1.9e+06 M⁻¹ s⁻¹
tripropionin
  Km: 300 µM
  kcat: 110 s⁻¹
  kcat/Km: 367000 M⁻¹ s⁻¹
Vinyl acetate
  Km: 4000 µM
  kcat: 50 s⁻¹
  kcat/Km: 12500 M⁻¹ s⁻¹
Vinyl butyrate
  Km: 2500 µM
  kcat: 210 s⁻¹
  kcat/Km: 84000 M⁻¹ s⁻¹
Vinyl propionate
  Km: 7000 µM
  kcat: 200 s⁻¹
  kcat/Km: 28600 M⁻¹ s⁻¹

B3: unnamed (protein)
chain: MLHLVCLALLCHVARGLPTQASHNAQPVINLGYARYQGVRLEAGVDEFLGMRYASPPIGDLRFRAPQDPPANQTLQSATEYGPICIGLDEEESPGDISEDCLFINVFKPSTATSQSKLPVWLFIQGGGYAENSNANYNGTQVIQASDDVIVFVTFNYRVGALGFLASEKVRQNGDLNAGLLDQRKALRWVKQYIEQFGGDPDHIVIHGVSAGAGSVAYHLSAYGGKDEGLFIGAIVESSFWPTQRTVSEMEFQFERFVNDTGCSSARDSLECLREQDIATIQKGNTGSPFPGGSSSPLPDWYFLPVTDGSLVPDELYNAFDAGNFIKVPVLVGDDTDEGSNFAYNASSSADVSRFFKNNYPNLTSQQLNEINQVYPRGKLLPRHAAYFGASSAAYGDATFTCPGNHVASSAARYLPNSVWNYRVNIIDESNIAGGIGVPHTFELPAIFGAGSTGTLSSDSSYLTYNAAIIPVTMHYFISFVQTLNPNTYRYATAPEWNTWGNGQRLRLQTNDTAMEAVPESSLQDCAFWKSLTVPMEV
triacetin
  Km: 15000 µM
  kcat: 265 s⁻¹
  kcat/Km: 17700 M⁻¹ s⁻¹
tripropionin
  Km: 350 µM
  kcat: 60 s⁻¹
  kcat/Km: 171000 M⁻¹ s⁻¹
Vinyl acetate
  Km: 3000 µM
  kcat: 400 s⁻¹
  kcat/Km: 133000 M⁻¹ s⁻¹
Vinyl butyrate
  Km: 2000 µM
  kcat: 25 s⁻¹
  kcat/Km: 12500 M⁻¹ s⁻¹
Vinyl propionate
  Km: 3000 µM
  kcat: 160 s⁻¹
  kcat/Km: 53300 M⁻¹ s⁻¹

B4: unnamed (protein)
chain: MLPLWTLSLLLGAVAGKEVCYERLGCFSDDSPWSGITERPLHILPWSPKDVNTRFLLYTNENPNNFQEVAADSSSISGSNFKTNRKTRFIIHGFIDKGEENWLANVCKNLFKVESVNCICVDWKGGSRTGYTQASQNIRIVGAEVAYFVEFLQSAFGYSPSNVHVIGHSLGAHAAGEAGRRTNGTIGRITGLDPAEPCFQGTPELVRLDPSDAKFVDVIHTDGAPIVPNLGFGMSQVVGHLDFFPNGGVEMPGCKKNILSQIVDIDGIWEGTRDFAACNHLRSYKYYTDSIVNPDGFAGFPCASYNVFTANKCFPCPSGGCPQMGHYADRYPGKTNDVGQKFYLDTGDASNFARWRYKVSVTLSGKKVTGHILVSLFGNKGNSKQYEIFKGTLKPDSTHSNEFDSDVDVGDLQMVKFIWYNNVINPTLPRVGASKIIVETNVGKQFNFCSPETVREEVLLTLTPC
triacetin
  Km: 190000 µM
  kcat: 8 s⁻¹
  kcat/Km: 42.1 M⁻¹ s⁻¹
tributyrin
  Km: 400 µM
  kcat: 7890 s⁻¹
  kcat/Km: 1.97e+07 M⁻¹ s⁻¹
tripropionin
  Km: 8000 µM
  kcat: 3320 s⁻¹
  kcat/Km: 415000 M⁻¹ s⁻¹
Vinyl acetate
  Km: 315000 µM
  kcat: 170 s⁻¹
  kcat/Km: 540 M⁻¹ s⁻¹
Vinyl butyrate
  Km: 25000 µM
  kcat: 625 s⁻¹
  kcat/Km: 25000 M⁻¹ s⁻¹
Vinyl laurate
  Km: 4000 µM
  kcat: 375 s⁻¹
  kcat/Km: 93800 M⁻¹ s⁻¹
Vinyl propionate
  Km: 75000 µM
  kcat: 800 s⁻¹
  kcat/Km: 10700 M⁻¹ s⁻¹
